# Laboratory results reported in patent publication US20250034549.
# B1: MMLV protease (protein)
# chain: TLDDQGGQGQEPPPEPRITLKVGGQPVTFLVDTGAQHSVLTQNPGPLSDKSAWVQGATGGKRYRWTTDRKVHLATGKVTHSFLHVPDCPYPLLGRDLLTKLKAQIHFEGSGAQVMGPMGQPLQVL
# Key:
# [1] = molecular target: v2.1 BE-VLP gag-ABE8e fusion
# [2] = molecular target: v2.2 BE-VLP gag-ABE8e fusion
# [3] = molecular target: v2.3 BE-VLP gag-ABE8e fusion
# [4] = molecular target: v2.4 BE-VLP gag-ABE8e fusion
protein,measurement,setting,value
B1,fraction of cleaved ABE8e versus full-length gag-ABE8e present in purified BE-VLPs (western blot),[1],"the v2.4 linker is cleaved more efficiently than the v2.1 and v2.2 linkers, but less efficiently than the v2.3 linker"
same,fraction of cleaved ABE8e versus full-length gag-ABE8e present in purified BE-VLPs (western blot),[2],"the v2.4 linker is cleaved more efficiently than the v2.1 and v2.2 linkers, but less efficiently than the v2.3 linker"
same,fraction of cleaved ABE8e versus full-length gag-ABE8e present in purified BE-VLPs (western blot),[3],"the v2.4 linker is cleaved more efficiently than the v2.1 and v2.2 linkers, but less efficiently than the v2.3 linker"
same,fraction of cleaved ABE8e versus full-length gag-ABE8e present in purified BE-VLPs (western blot),[4],"the v2.4 linker is cleaved more efficiently than the v2.1 and v2.2 linkers, but less efficiently than the v2.3 linker"
